Values quoted from earlier work as cited in PMC7096212.

Columns and labels:
[1] = biological target: DILP-5 (Drosophila melanogaster) (UniProt Q7KUD5)
IGF-1 (Homo sapiens) = IGF-1 (Homo sapiens) (UniProt P05019)
insulin (Homo sapiens) = insulin (Homo sapiens) (UniProt P01308)
UniProt P01308, sequence (P01308 90-110): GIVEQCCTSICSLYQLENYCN

UniProt Q7KUD5, sequence (Q7KUD5 23-50, chain 1 of 2): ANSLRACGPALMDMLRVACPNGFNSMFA
UniProt Q7KUD5, sequence (Q7KUD5 84-108, chain 2 of 2): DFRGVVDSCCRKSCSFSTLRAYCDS
UniProt P05019, sequence (P05019 49-118): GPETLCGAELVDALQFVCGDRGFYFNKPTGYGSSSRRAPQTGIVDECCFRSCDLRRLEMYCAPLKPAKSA

Kd [1]: 0.002 µM
Kd (IGF-1 (Homo sapiens)): 0.0136 µM
Kd (insulin (Homo sapiens)): 0.135 µM
Substance: IBP (from UniProt Q09024)
